According to US6866851 (WASHINGTON UNIVERSITY, dated 2005):

Target: GFRα2-RET receptor complex (cells transfected with GFRα2 and expressing RET)
Assay: cell-based or functional assay

GFRα2-RET reporter activation relative to GDNF: < 30 % of GDNF
B1: PGP-F2ac (His-Flag-PGP-F2ac, from mouse persephin and rat GDNF) (ligand)
chain: ALAHHHHHHDYKDDDDKGSCRLWSLTLPVAELGLGYASEEKVIFRYCAGSCPQEARTQHSLVLARLRGRGRAHGRPCCQPTAFDDDVTFLDDQHHYHILRKHSAAACGC
